# Laboratory results as given in PMC6793842.
# B1: unnamed (parent)
# chain 1: FENAIKKTKNQENNLTLLPIKSTEEEKDDIKNGKDIKKEIDNDKENIKTNNAKDHSTYIKSYLNTNVNDGLKYLFIPSHNSFIKKYSVFNQINDGMLLNEKNDVKNNEDYKNVDYKNVNFLQYDFKELSNYNIANSIDILQEKEGHLDFVIIPHYTFLDYYKHLSYNSIYHKYSTHGKYIAVDAFIKKINERYDQVKSKCNDIKNDLIATIKKLEHPYDINNKNDDSYRYDISEEIDDKSEETDDETEEVEDSIQDTDSNHTPSNKKKNDLMNRTFKKMMDEYNTKKKKLIKCIKNHENDFNKICMDMKNYGTNLFEQLSCYNNNFCNTNGIRYHYDEYIHKLILSVKSKNLNKDLSDMTNILQQSELLLTNLNKKMGSYIYIDTIKFIHKEMKHIFNRIEYHTKIINDKTKIIQDKIKLNIWRTFQKDELLKRILDMSNEYSLFITSDHLRQMLYNTFYSKEKHLNNIFHHLIYVLQMKFNDVPIKMEYFQTYKKNKPLTQ
# chain 2: EPGTVFTTVEDLGSKILLTCSLNDSATEVTGHRWLKGGVVLKEDALPGQKTEFKVDSDDQWGEYSCVFLPEPMGTANIQLHGPPRVKAVKSSEHINEGETAMLVCKSESVPPVTDWAWYKITDSEDKALMNGSESRFFVSSSQGRSELHIENLNMEADPGQYRCNGTSSKGSDQAIITLRVRSHLAAL
# Variants of: B1
# Test: SPR
# Details: read off a plot; for response (response units): with partner chain of the complex shown, plateau of the highest curve of four 2-fold serial dilutions (600 to 75 nM); for screen value: with partner chain of the complex shown;
Variant,response (response units),screen value
chain 1 R192T,180,2.3 s
chain 1 Q195K,360,2.4 s
chain 1 H176Y,340,2.4 s
chain 1 Y179C,130,1.5 s
chain 1 D124H,220,2.6 s
chain 1 Y173S,260,2.3 s
